How the values were obtained:
[1] = target: recombinant carbonic anhydrase (SEQ ID NO: 4) from Bacillus sp. P203 (Alkalicoccobacillus plakortidis, UniProt A0ABT0XM38); conditions: read-out: IC50, inhibition of recombinant carbonic anhydrase; purified recombinant enzyme from Bacillus sp. P203
Procedure: A standard assay contained 900 microliter of PNPA, 10 microliter of 300 mM Tris pH 7.5 and 90 microliter of carbonic anhydrase protein solution. After a pre-incubation for 5 min, the enzyme was added to the PNPA buffer mixture and the increase in absorbance (due to the hydrolysis of the substrate and release of p-nitrophenol) at 348 nm was monitored photometrically in a quartz cuvette over a period of 10 min. As a positive control for both activity assays, a solution of bovine carbonic anhydrase (Calbiochem, 1 mg per mL) may be used.
Enzyme was pre-incubated with 1 mM of the substances for 1 h on ice in a total volume of 50 micro liter before testing activity with 10 micro liter of the mixture with the Wilbur and Anderson, 1948 method. The control with no additives (water) was set to 100% activity. […] Instead activity with 25 micro molar concentration of the chemicals are given.

[2] = Temperature and storage stability of purified recombinant carbonic anhydrase (residual activity); assay type: physicochemical
Procedure: The carbonic anhydrase activity was determined according to Wilbur. […] 147-154. […] (see FIG. 2).

Sequence of recombinant carbonic anhydrase (SEQ ID NO: 4) from Bacillus sp. P203 (A0ABT0XM38 entry or part of it): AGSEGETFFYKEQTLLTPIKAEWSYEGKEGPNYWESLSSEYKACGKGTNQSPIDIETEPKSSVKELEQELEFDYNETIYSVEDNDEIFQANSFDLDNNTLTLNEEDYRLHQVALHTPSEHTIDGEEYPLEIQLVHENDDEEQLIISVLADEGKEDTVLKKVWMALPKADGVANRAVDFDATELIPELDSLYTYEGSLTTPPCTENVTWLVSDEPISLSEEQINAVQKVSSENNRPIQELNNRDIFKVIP

`[N-]=[N+]=[N-]` [azide] gave an IC50 [1] of 500 µM.

B1: recombinant carbonic anhydrase: purified recombinant carbonic anhydrase (SEQ ID NO: 4) from strain Bacillus sp. P203 (protein)
chain: MRKTNVLLKSTMITTLLLSSTLLVTTPIYAHTETQQLSYKTLNDLLTEDGHSGWSYSGLTGPEYWGELNEDYKACSKGEEQSPIALQNEDIDNEKWSFDLDYEETEFSIENNGHTIQANVEGSSSNTLLLNDTEYNLVQFHFHSPSEHTLDDEYFEMEVHLVHQDEHANLAVLGVLIEEGEQNETLTDMWELMPGQQGEAAERITLNPSELVPSDLSTFQYDGSLTTPPCSEDVKWSVSDSTISLSPEQLEAFQDLYPNNYRPIQDLGNREVGFHY
modifications: Bacillus sp. P 203
notes: P203
With B1 the “activity remaining after storage” value ([2]; 4° C. in buffer F for a week) was 97+/−4 % of original activity, the “effect of storage with DTT on stability” value ([2]; buffer F supplemented with 1 mM dithiothreitol (DTT)) was “stabilize the enzyme” and the “activity remaining after storage” value ([2]; room temperature (20° C.), buffer F) was 95+/−4 % of original activity. The “stability at elevated temperature” value ([2]; temperatures over 37° C., tested 4-60° C. for 1 and 17 h (FIG. 2)) was “rapidly decreased” and the “activity remaining after storage” value ([2]; −20° C. for one week in buffer F) was 99+/−4 % of original activity.
